In patent publication US7202050:

Biological target: T1, TMR-Asp-Glu-Ser-Glu-Glu-Glu-Asp-Lys(Nε-Flsn)-COOH reporter peptide (casein kinase II substrate peptide), unphosphorylated (not fully specified)
T1 chain: DESEEEDK

B1: Human casein kinase II (CKII) (protein)
chain: MSGPVPSRARVYTDVNTHRPREYWDYESHVVEWGNQDDYQLVRKLGRGKYSEVFEAINITNNEKVVVKILKPVKKKKIKREIKILENLRGGPNIITLADIVKDPVSRTPALVFEHVNNTDFKQLYQTLTDYDIRFYMYEILKALDYCHSMGIMHRDVKPHNVMIDHEHRKLRLIDWGLAEFYHPGQEYNVRVASRYFKGPELLVDYQMYDYSLDMWSLGCMLASMIFRKEPFFHGHDNYDQLVRIAKVLGTEDLYDYIDKYNIELDPRFNDILGRHSRKRWERFVHSENQHLVSPEALDFLDKLLRYDHQSRLTAREAMEHPYFYTVVKDQARMGSSSMPGGSTPVSSANMMSGISSVPTPSPLGPLAGSPVIAAANPLGMPVPAAAGAQQ
- phosphorylation of the peptide by CKII, HPLC analysis: Phosphorylation of the peptide by CKII was confirmed by incubation of the peptide with kinase
